In paper doi:10.1101/2023.01.09.523258 (bioRxiv, 2023):

Molecular target: the molecule itself
Assay: native MS

B1: Conalbumin (Ovotransferrin/OVT) from chicken egg white (natural protein, UniProt P02789 20-705, looked up)
chain: APPKSVIRWCTISSPEEKKCNNLRDLTQQERISLTCVQKATYLDCIKAIANNEADAISLDGGQAFEAGLAPYKLKPIAAEVYEHTEGSTTSYYAVAVVKKGTEFTVNDLQGKTSCHTGLGRSAGWNIPIGTLLHRGAIEWEGIESGSVEQAVAKFFSASCVPGATIEQKLCRQCKGDPKTKCARNAPYSGYSGAFHCLKDGKGDVAFVKHTTVNENAPDQKDEYELLCLDGSRQPVDNYKTCNWARVAAHAVVARDDNKVEDIWSFLSKAQSDFGVDTKSDFHLFGPPGKKDPVLKDLLFKDSAIMLKRVPSLMDSQLYLGFEYYSAIQSMRKDQLTPSPRENRIQWCAVGKDEKSKCDRWSVVSNGDVECTVVDETKDCIIKIMKGEADAVALDGGLVYTAGVCGLVPVMAERYDDESQCSKTDERPASYFAVAVARKDSNVNWNNLKGKKSCHTAVGRTAGWVIPMGLIHNRTGTCNFDEYFSEGCAPGSPPNSRLCQLCQGSGGIPPEKCVASSHEKYFGYTGALRCLVEKGDVAFIQHSTVEENTGGKNKADWAKNLQMDDFELLCTDGRRANVMDYRECNLAEVPTHAVVVRPEKANKIRDLLERQEKRFGVNGSEKSKFMMFESQNKDLLFKDLTKCLFKVREGTTYKEFLGDKFYTVISSLKTCNPSDILQMCSFLEGK
stoichiometry N: 2
